One data set relates to hTERT-HMEC. Nature of the data set: percentage of EdU-negative (G0-arrested) nuclei per well, 72 h; higher = more G0 arrest. The note with it: reference: sequence is the full UniProt precursor, the tested protein was the secreted form or ectodomain.
The test system of the next data set is MCF7. Described as above. The note with it: reference: sequence is the full UniProt precursor, the tested protein was the secreted form or ectodomain.
Where [1] appears, read: protein concentration 0.0225 µM.
The mark [2] stands for this setting: protein concentration 0.03125 µM.
Where [3] appears, read: protein concentration 0.3125 µM.
The mark [4] stands for this setting: protein concentration 0.01225 µM.
Setting [5] is: protein concentration 0.1225 µM.

± gives the standard deviation of the averaged measurements.
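Note: secreted proteins added to cultured cells, EdU pulse at the end, nuclei found by Hoechst imaging, EdU status from nuclear versus surrounding ring intensity ratio, PBS as neutral control.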

On to “MILIPRMLLVLFLLLPILSSAKAQVNPAICRYPLGMSGGQIPDEDITASSQWSESTAAKYGRLDSEEGDGAWCPEIPVEPDDLKEFLQIDLHTLHFITLVGTQGRHAGGHGIEFAPMYKINYSRDGTRWISWRNRHGKQVLDGNSNPYDIFLKDLEPPIVARFVRFIPVTDHSMNVCMRVELYGCVWLDGLVSYNAPAGQQFVLPGGSIIYLNDSVYDGAVGYSMTEGLGQLTDGVSGLDDFTQTHEYHVWPGYDYVGWRNESATNGYIEIMFEFDRIRNFTTMKVHCNNMFAKGVKIFKEVQCYFRSEASEWEPNAISFPLVLDDVNPSARFVTVPLHHRMASAIKCQYHFADTWMMFSEITFQSDAAMYNNSEALPTSPMAPTTYDPMLKVDDSNTRILIGCLVAIIFILLAIIVIILWRQFWQKMLEKASRRMLDDEMTVSLSLPSDSSMFNNNRSSSPSEQGSNSTYDRIFPLRPDYQEPSRLIRKLPEFAPGEEESGCSGVVKPVQPSGPEGVPHYAEADIVNLQGVTGGNTYSVPAVTMDLLSGKDVAVEEFPRKLLTFKEKLGEGQFGEVHLCEVEGMEKFKDKDFALDVSANQPVLVAVKMLRADANKNARNDFLKEIKIMSRLKDPNIIHLLAVCITDDPLCMITEYMENGDLNQFLSRHEPPNSSSSDVRTVSYTNLKFMATQIASGMKYLSSLNFVHRDLATRNCLVGKNYTIKIADFGMSRNLYSGDYYRIQGRAVLPIRWMSWESILLGKFTTASDVWAFGVTLWETFTFCQEQPYSQLSDEQVIENTGEFFRDQGRQTYLPQPAICPDSVYKLMLSCWRRDTKNRPSFQEIHLLLLQQGDE”, for which the “percentage of EdU-negative” value in the data set on hTERT-HMEC (setting [1]) turned out to be 4.96 ± 0.44%; in the data set on hTERT-HMEC (protein concentration 0.225 µM), 5.43 ± 1.3%; with MCF7 (setting [1]), 26.1 ± 1%; in the data set on MCF7 (protein concentration 0.225 µM), 25.9 ± 1.3%.

In the case of “MIPAKDMAKVMIVMLAICFLTKSDGKSVKKRSVSEIQLMHNLGKHLNSMERVEWLRKKLQDVHNFVALGAPLAPRDAGSQRPRKKEDNVLVESHEKSLGEADKADVNVLTKAKSQ”, the “percentage of EdU-negative” value in the data set with hTERT-HMEC (setting [2]) turned out to be 4.88 ± 0.23%; with hTERT-HMEC (setting [3]), 6.37 ± 2%; in the data set on MCF7 (setting [2]) it was 25.8 ± 0.95%; in the data set with MCF7 (setting [3]), 25 ± 0.47%.

Take “MIPFLPMFSLLLLLIVNPINANNHYDKILAHSRIRGRDQGPNVCALQQILGTKKKYFSTCKNWYKKSICGQKTTVLYECCPGYMRMEGMKGCPAVLPIDHVYGTLGIVGATTTQRYSDASKLREEIEGKGSFTYFAPSNEAWDNLDSDIRRGLESNVNVELLNALHSHMINKRMLTKDLKNGMIIPSMYNNLGLFINHYPNGVVTVNCARIIHGNQIATNGVVHVIDRVLTQIGTSIQDFIEAEDDLSSFRAAAITSDILEALGRDGHFTLFAPTNEAFEKLPRGVLERIMGDKVASEALMKYHILNTLQCSESIMGGAVFETLEGNTIEIGCDGDSITVNGIKMVNKKDIVTNNGVIHLIDQVLIPDSAKQVIELAGKQQTTFTDLVAQLGLASALRPDGEYTLLAPVNNAFSDDTLSMDQRLLKLILQNHILKVKVGLNELYNGQILETIGGKQLRVFVYRTAVCIENSCMEKGSKQGRNGAIHIFREIIKPAEKSLHEKLKQDKRFSTFLSLLEAADLKELLTQPGDWTLFVPTNDAFKGMTSEEKEILIRDKNALQNIILYHLTPGVFIGKGFEPGVTNILKTTQGSKIFLKEVNDTLLVNELKSKESDIMTTNGVIHVVDKLLYPADTPVGNDQLLEILNKLIKYIQIKFVRGSTFKEIPVTVYTTKIITKVVEPKIKVIEGSLQPIIKTEGPTLTKVKIEGEPEFRLIKEGETITEVIHGEPIIKKYTKIIDGVPVEITEKETREERIITGPEIKYTRISTGGGETEETLKKLLQEEVTKVTKFIEGGDGHLFEDEEIKRLLQGDTPVRKLQANKKVQGSRRRLREGRSQ”: the “percentage of EdU-negative” value was 5.41 ± 1.4% in the data set on hTERT-HMEC (setting [4]), 5 ± 1.3% with hTERT-HMEC (setting [5]), 25.5 ± 0.97% with MCF7 (setting [4]) and 27.4 ± 1.6% with MCF7 (setting [5]).

As to “MIPGGLSEAKPATPEIQEIVDKVKPQLEEKTNETYGKLEAVQYKTQVVAGTNYYIKVRAGDNKYMHLKVFKSLPGQNEDLVLTGYQVDKNKDDELTGF”, the “percentage of EdU-negative” value in the data set with hTERT-HMEC (setting [2]) worked out at 5.99 ± 0.58%; in the data set with hTERT-HMEC (setting [3]), 5.5 ± 0.67%; in the data set with MCF7 (setting [2]), 26.6 ± 0.69%; in the data set on MCF7 (setting [3]), 23.6 ± 2.5%.

With “MIPLLLAALLCVPAGALTCYGDSGQPVDWFVVYKLPALRGSGEAAQRGLQYKYLDESSGGWRDGRALINSPEGAVGRSLQPLYRSNTSQLAFLLYNDQPPQPSKAQDSSMRGHTKGVLLLDHDGGFWLVHSVPNFPPPASSAAYSWPHSACTYGQTLLCVSFPFAQFSKMGKQLTYTYPWVYNYQLEGIFAQEFPDLENVVKGHHVSQEPWNSSITLTSQAGAVFQSFAKFSKFGDDLYSGWLAAALGTNLQVQFWHKTVGILPSNCSDIWQVLNVNQIAFPGPAGPSFNSTEDHSKWCVSPKGPWTCVGDMNRNQGEEQRGGGTLCAQLPALWKAFQPLVKNYQPCNGMARKPSRAYKI”, the “percentage of EdU-negative” value in the data set on hTERT-HMEC (setting [1]) is 5.36 ± 0.56%; with hTERT-HMEC (protein concentration 0.225 µM), 6.55 ± 0.55%; in the data set on MCF7 (setting [1]), 24.5 ± 0.64%; in the data set on MCF7 (protein concentration 0.225 µM), 26.5 ± 3%.

On to “MIRAAPPPLFLLLLLLLLLVSWASRGEAAPDQDEIQRLPGLAKQPSFRQYSGYLKGSGSKHLHYWFVESQKDPENSPVVLWLNGGPGCSSLDGLLTEHGPFLVQPDGVTLEYNPYSWNLIANVLYLESPAGVGFSYSDDKFYATNDTEVAQSNFEALQDFFRLFPEYKNNKLFLTGESYAGIYIPTLAVLVMQDPSMNLQGLAVGNGLSSYEQNDNSLVYFAYYHGLLGNRLWSSLQTHCCSQNKCNFYDNKDLECVTNLQEVARIVGNSGLNIYNLYAPCAGGVPSHFRYEKDTVVVQDLGNIFTRLPLKRMWHQALLRSGDKVRMDPPCTNTTAASTYLNNPYVRKALNIPEQLPQWDMCNFLVNLQYRRLYRSMNSQYLKLLSSQKYQILLYNGDVDMACNFMGDEWFVDSLNQKMEVQRRPWLVKYGDSGEQIAGFVKEFSHIAFLTIKGAGHMVPTDKPLAAFTMFSRFLNKQPY”, for which the “percentage of EdU-negative” value came out at 5.3 ± 0.043% in the data set on hTERT-HMEC (setting [1]), 5.82 ± 0.15% with hTERT-HMEC (protein concentration 0.225 µM), 25.2 ± 3.7% with MCF7 (setting [1]) and 25.1 ± 0.47% in the data set with MCF7 (protein concentration 0.225 µM).

The values are drawn from the supplement of paper PMC11316812.
